Data taken from PMC4945075.

Biological target: T1, His-tagged cyt-SpoIIE (cytosolic part of SpoIIE), fluorescently labeled (B. subtilis)
T1 sequence (P37475 whole entry, looked up): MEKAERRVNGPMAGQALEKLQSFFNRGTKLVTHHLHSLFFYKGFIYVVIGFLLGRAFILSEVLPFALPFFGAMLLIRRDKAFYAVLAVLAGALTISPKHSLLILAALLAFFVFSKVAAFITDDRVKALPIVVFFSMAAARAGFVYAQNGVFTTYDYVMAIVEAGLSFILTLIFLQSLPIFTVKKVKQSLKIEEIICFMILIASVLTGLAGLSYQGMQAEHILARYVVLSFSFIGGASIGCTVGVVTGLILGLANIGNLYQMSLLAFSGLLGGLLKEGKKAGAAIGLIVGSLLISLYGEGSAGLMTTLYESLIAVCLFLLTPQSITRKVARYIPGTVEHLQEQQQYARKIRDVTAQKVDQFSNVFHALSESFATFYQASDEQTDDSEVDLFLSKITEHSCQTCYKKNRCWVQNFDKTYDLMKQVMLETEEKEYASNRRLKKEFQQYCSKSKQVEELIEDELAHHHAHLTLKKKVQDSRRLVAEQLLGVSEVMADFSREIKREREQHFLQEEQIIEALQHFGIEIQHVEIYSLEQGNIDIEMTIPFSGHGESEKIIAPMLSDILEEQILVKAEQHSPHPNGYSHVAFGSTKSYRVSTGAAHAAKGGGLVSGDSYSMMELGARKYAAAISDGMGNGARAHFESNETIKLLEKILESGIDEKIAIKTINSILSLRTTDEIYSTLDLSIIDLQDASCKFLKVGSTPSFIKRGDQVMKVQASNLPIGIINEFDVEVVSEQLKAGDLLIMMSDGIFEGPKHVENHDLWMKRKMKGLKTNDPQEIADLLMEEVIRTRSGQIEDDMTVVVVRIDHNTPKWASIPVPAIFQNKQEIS
Assay: MST; labeled cyt-SpoIIE constant at 34 μM, unlabeled cyt-RodZ titrated 6.7 nM to 221 μM; 25 mM Tris-HCl pH 8.0, 150 mM NaCl, 40 mM imidazole, 5% glycerol, 0.05% Tween-20; Monolith NT.115; 'preliminary Kd'

Kd: 10 µM
B1: His6-tagged cyt-RodZ (cytosolic part of RodZ) (domain or fragment)
chain: MFVVTELGIRLKEAREEKAMSLDDLQAATKIQKRYLTALEEGNYDIIPGKFYVRAFIKQYAEAVGLDADQLFEEHKKDIPNTYHDDVSEKI
